What all share (test): SPR, Fab over captured mutant LAG-3-Fc;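 also: fc fusion variants captured on anti-human IgG Fc sensor, Fab injected with association then dissociation phases, KD obtained from Langmuir one-to-one fit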
Experiment [1] addresses T1, human LAG-3 domain 1-2 Fc fusion, point mutation #37 S90A (human, UniProt P18627 23-266).
T1 construct: not shown: human IgG1 Fc, AA P101-K330
T1 sequence: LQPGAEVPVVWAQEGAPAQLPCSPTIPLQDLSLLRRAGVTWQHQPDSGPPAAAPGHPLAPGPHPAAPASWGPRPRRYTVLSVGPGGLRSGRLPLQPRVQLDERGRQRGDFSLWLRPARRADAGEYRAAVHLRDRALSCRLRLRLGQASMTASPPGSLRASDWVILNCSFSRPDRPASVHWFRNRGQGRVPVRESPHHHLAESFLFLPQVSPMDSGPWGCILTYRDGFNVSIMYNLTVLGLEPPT

For experiment [2], the target named is T2, human LAG-3 domain 1-2 Fc fusion, point mutation #80 R163A (human, UniProt P18627 23-266).
T2 construct: not shown: human IgG1 Fc, AA P101-K330
T2 sequence: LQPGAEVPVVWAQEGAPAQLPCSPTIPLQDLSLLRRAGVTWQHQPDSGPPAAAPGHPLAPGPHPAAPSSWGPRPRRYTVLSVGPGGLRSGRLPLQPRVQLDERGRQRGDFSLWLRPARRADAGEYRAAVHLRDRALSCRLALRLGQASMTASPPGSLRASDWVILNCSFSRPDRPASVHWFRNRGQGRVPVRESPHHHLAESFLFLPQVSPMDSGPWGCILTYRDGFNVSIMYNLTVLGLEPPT

In experiment [3] the target is T3, human LAG-3 domain 1-2 Fc fusion, point mutation #40 G93A (human, UniProt P18627 23-266).
T3 construct: not shown: human IgG1 Fc, AA P101-K330
T3 sequence: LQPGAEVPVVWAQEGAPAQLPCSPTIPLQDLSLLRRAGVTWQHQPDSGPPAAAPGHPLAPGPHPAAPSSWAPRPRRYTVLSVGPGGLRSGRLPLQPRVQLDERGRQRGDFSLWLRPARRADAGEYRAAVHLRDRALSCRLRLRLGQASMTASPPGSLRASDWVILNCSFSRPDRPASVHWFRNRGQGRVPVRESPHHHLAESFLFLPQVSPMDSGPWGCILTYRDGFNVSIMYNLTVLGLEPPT

Experiment [4] deals with T4, human LAG-3 domain 1-2 Fc fusion, point mutation #62 Q121A (human, UniProt P18627 23-266).
T4 construct: not shown: human IgG1 Fc, AA P101-K330
T4 sequence: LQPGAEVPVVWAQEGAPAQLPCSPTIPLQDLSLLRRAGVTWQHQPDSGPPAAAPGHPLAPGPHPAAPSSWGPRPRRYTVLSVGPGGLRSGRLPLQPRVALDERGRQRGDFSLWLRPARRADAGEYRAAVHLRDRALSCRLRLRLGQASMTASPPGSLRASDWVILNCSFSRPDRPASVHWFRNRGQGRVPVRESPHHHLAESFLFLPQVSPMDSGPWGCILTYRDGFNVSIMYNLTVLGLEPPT

The target in experiment [5] is T5, human LAG-3 domain 1-2 Fc fusion, point mutation #73 R137A (human, UniProt P18627 23-266).
T5 construct: not shown: human IgG1 Fc, AA P101-K330
T5 sequence: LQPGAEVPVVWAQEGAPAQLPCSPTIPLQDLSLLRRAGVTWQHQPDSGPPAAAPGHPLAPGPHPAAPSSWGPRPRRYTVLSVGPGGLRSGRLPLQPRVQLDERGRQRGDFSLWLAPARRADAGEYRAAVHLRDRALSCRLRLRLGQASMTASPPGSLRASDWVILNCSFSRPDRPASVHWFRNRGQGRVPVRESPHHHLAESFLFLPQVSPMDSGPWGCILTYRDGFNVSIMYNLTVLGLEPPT

Experiment [6] has as its target T6, human LAG-3 domain 1-2 Fc fusion, point mutation #50 P106A (human, UniProt P18627 23-266).
T6 construct: not shown: human IgG1 Fc, AA P101-K330
T6 sequence: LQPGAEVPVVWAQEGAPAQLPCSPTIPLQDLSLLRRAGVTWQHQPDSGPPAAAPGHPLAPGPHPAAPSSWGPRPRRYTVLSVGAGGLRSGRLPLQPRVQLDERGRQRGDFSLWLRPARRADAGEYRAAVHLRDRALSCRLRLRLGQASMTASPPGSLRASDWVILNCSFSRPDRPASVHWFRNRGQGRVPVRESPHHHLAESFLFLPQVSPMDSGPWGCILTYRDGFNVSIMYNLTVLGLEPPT

For experiment [7], the target named is T7, human LAG-3 domain 1-2 Fc fusion, point mutation #23 P76A (human, UniProt P18627 23-266).
T7 construct: not shown: human IgG1 Fc, AA P101-K330
T7 sequence: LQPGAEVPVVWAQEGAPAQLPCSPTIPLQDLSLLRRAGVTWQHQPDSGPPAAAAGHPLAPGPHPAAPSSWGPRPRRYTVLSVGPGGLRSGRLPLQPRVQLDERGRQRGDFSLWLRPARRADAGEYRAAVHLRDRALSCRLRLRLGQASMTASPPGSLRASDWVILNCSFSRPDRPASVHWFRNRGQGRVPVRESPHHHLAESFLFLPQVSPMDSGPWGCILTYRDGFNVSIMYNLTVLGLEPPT

Experiment [8] deals with T8, human LAG-3 domain 1-2 Fc fusion, point mutation #15 Q64A (human, UniProt P18627 23-266).
T8 construct: not shown: human IgG1 Fc, AA P101-K330
T8 sequence: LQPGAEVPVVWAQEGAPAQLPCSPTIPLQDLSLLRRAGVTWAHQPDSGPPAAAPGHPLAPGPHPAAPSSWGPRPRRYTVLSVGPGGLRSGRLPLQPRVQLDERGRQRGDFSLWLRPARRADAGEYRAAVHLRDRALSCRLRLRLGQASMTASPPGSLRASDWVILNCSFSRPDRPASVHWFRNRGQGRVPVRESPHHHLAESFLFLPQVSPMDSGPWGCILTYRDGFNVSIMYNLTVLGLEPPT

For experiment [9], the target named is T9, human LAG-3 domain 1-2 Fc fusion, point mutation #41 P94A (human, UniProt P18627 23-266).
T9 construct: not shown: human IgG1 Fc, AA P101-K330
T9 sequence: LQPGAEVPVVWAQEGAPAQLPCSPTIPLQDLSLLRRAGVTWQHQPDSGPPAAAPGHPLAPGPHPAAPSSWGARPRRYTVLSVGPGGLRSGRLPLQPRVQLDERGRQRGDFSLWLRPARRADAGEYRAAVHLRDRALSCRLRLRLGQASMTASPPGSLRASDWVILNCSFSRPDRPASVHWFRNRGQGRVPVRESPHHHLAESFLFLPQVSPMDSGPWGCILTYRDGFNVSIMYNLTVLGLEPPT

From patent US20220363757A1 (SYMPHOGEN A S, published 2022) come the findings set out here.

B1: Fab fragment of antibody 15011 (Fab, V domains shown, not shown: a dimerising Fc or GST)
VH: EVQLLESGGGLVQPGGSLRLSCAASGFDFRSYAMMWVRQAPGKGLEWVGGINGEVGGSNTYYAPAVKGRATISRDNSKNTLYLQMNSLRAEDTAVYYCVKGAGACGICNDDIDAWGQGTLVTVSS
VL: SYELTQDPAVSVALGQTVRITCSGAGSYAGSYYYGWHQQKPGQAPVTVIYDNDKRPSNIPDRFSGSSSGNTASLTITGAQAEDEADYYCGSTNDNDDGGLFGSGTKVTVLG
notes: monomeric Fab made by GingisKHAN digestion of the IgG1
Take B1: the “KD mutant/KD wild type” value in experiment [1] turned out to be 0.9 fold; in experiment [2] it was 0.6 fold; in experiment [3], 1 fold; in [4] it was 0.9 fold; in [5], 0.6 fold; in experiment [6], 4.6 fold. The “KD mutant/KD wild type” value worked out at 0.8 fold in [7], 0.6 fold in experiment [8] and 0.7 fold in experiment [9].

B2: Fab fragment of antibody 15532 (Fab, V domains shown, not shown: a dimerising Fc or GST)
VH: QVQLQQWGAGLLRPSETLSLTCAVYGESFSGYYWNWIRQPPGKGLEWIGEINHSGSTNYNPSLKSRVTISVDTSKTQFSLKLSSVTAADTAVYYCARGWDLLDWNDYWNEYWGQGTLVTVSS
VL: EIVLTQSPATLSLSPGERATLSCRASQSVSSYLAWYQQKPGQAPRLLIYDASNRATGIPARFSGSGSGTDFTLTISSLEPEDFAVYYCQQRSNWPLTFGGGTKVEIKR
notes: as for B1
Consider B2, for which the “KD mutant/KD wild type” value in experiment [1] worked out at 0.6 fold; in experiment [2] it was 2.5 fold; in [3], 7.1 fold; in [4], 0.9 fold; in [5], 3.6 fold; in [6], 2.7 fold. In addition, the “KD mutant/KD wild type” value in experiment [7] worked out at 1 fold; in experiment [8], 2.9 fold; in experiment [9], 0.8 fold.

B3: Fab fragment of antibody 15431 (Fab, V domains shown, not shown: a dimerising Fc or GST)
VH: QVQLQQSGPGLVKPSQTLSLTCAISGDSVSSNSAAWNWIRQSPSRGLEWLGRTYYRSKWYNDYAVSVKSRITINPDTSKNQFSLQLNSVTPEDTAVYYCARDDDWNDFDYWGQGTLVTVSS
VL: EIVLTQSPATLSLSPGERATLSCRASQSVSSYLAWYQQKPGQAPRLLIYDASNRATGIPARFSGSGSGTDFTLTISSLEPEDFAVYYCQQRSNWPLTFGGGTKVEIKR
notes: as for B1
Consider B3, for which the “KD mutant/KD wild type” value is 0.9 fold in experiment [1], 11.6 fold in experiment [3], 1 fold in experiment [4] and 0.7 fold in experiment [7]. For the same molecule, the binding result in experiment [2], in [5], in experiment [6], in experiment [8] and in [9] was “no binding (tested: 300 nM)” in each case.

B4: Fab fragment of antibody 15572 (Fab, V domains shown, not shown: a dimerising Fc or GST)
VH: QLQLQESGPGLVKPSETLSLTCTVSGDSISSSSYYWGWIRQPPGKGLEWIGSIFYSGNTYYNPSLKSRVTISVDTSKNQFSLKLSSVTAADTAVYYCAREDDFLTDYYGAFDIWGQGTMVTVSS
VL: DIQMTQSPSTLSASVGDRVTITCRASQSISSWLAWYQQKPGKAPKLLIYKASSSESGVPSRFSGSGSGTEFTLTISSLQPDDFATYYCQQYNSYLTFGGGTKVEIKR
notes: as for B1
Regarding B4, the “KD mutant/KD wild type” value in [1] worked out at 0.8 fold; in [3], 0.8 fold; in experiment [4] it was 0.6 fold; in [7] it was 0.6 fold; in experiment [9], 0.6 fold. The binding result in experiment [2], in [5], in experiment [6] and in experiment [8] was “no binding (tested: 300 nM)” in each case.
